Results published in the supplement of paper PMC9112550, “Optimization of the antimicrobial peptide Bac7 by deep mutational scanning” (BMC Biology, 2022).

Test system: Escherichia coli TOP10
Assay: shrunken log2 fold change of peptide-encoding DNA abundance (4.5 h post-induction vs induction); higher = less antimicrobial activity (less host growth inhibition)
Settings: time post-induction: 4.5 h; library: site-saturation at positions 5, 18, 19, 20
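Also: peptides expressed intracellularly from a pBAD plasmid library in pooled LB shake-flask culture, induced with 0.3% L-arabinose, DNA abundance read by NGS, three biological replicates, DESeq2 with apeglm shrinkage.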

Row | Sequence | shrunken log2 fold change
1 | RRIRMRPPRLPRPRPRPWPHPRP | 0.512
2 | RRIRIRPPRLPRPRPRPDWYPRP | -0.842
3 | RRIRLRPPRLPRPRPRPGWAPRP | 0.691
4 | RRIRKRPPRLPRPRPRPDENPRP | 1.42
5 | RRIRTRPPRLPRPRPRPQRIPRP | -0.131
6 | RRIRPRPPRLPRPRPRPPVIPRP | 0.332
7 | RRIRNRPPRLPRPRPRPQKLPRP | -0.188
8 | RRIRLRPPRLPRPRPRPSPYPRP | -0.674
9 | RRIRQRPPRLPRPRPRPNNVPRP | -0.149
10 | RRIRARPPRLPRPRPRPCPRPRP | 0.898
11 | RRIRDRPPRLPRPRPRPETFPRP | 0.00902
12 | RRIRQRPPRLPRPRPRPILPPRP | 0.0747
13 | RRIRERPPRLPRPRPRPSNFPRP | -0.909
14 | RRIRHRPPRLPRPRPRPRGPPRP | 0.171
15 | RRIRHRPPRLPRPRPRPQEFPRP | -0.00101
16 | RRIRLRPPRLPRPRPRPWIDPRP | -0.0305
17 | RRIRIRPPRLPRPRPRPLLLPRP | -0.597
18 | RRIRSRPPRLPRPRPRPACTPRP | 0.28
19 | RRIRYRPPRLPRPRPRPTYNPRP | -1.32
20 | RRIRFRPPRLPRPRPRPHLVPRP | -0.33
21 | RRIRIRPPRLPRPRPRPRIMPRP | -0.537
22 | RRIRGRPPRLPRPRPRPKWSPRP | 0.564
23 | RRIRWRPPRLPRPRPRPSTMPRP | -0.284
24 | RRIRPRPPRLPRPRPRPCENPRP | -0.0133
25 | RRIRHRPPRLPRPRPRPVWHPRP | 0.0453

Row | Sequence | shrunken log2 fold change
26 | RRIRCRPPRLPRPRPRPNRSPRP | -0.359
27 | RRIRLRPPRLPRPRPRPCHAPRP | -0.235
28 | RRIRTRPPRLPRPRPRPPFRPRP | 0.693
29 | RRIRNRPPRLPRPRPRPDENPRP | 0.00254
30 | RRIRQRPPRLPRPRPRPSVNPRP | -0.642
31 | RRIRVRPPRLPRPRPRPCGYPRP | 0.0222
32 | RRIRLRPPRLPRPRPRPGQWPRP | 0.17
33 | RRIRDRPPRLPRPRPRPHRSPRP | -0.015
34 | RRIRHRPPRLPRPRPRPKWTPRP | 0.0551
35 | RRIRYRPPRLPRPRPRPNANPRP | -2
36 | RRIRERPPRLPRPRPRPEYDPRP | -0.00663
37 | RRIRRRPPRLPRPRPRPNGPPRP | 0.384
38 | RRIRERPPRLPRPRPRPKNAPRP | -0.352
39 | RRIRWRPPRLPRPRPRPARIPRP | 0.176
40 | RRIRYRPPRLPRPRPRPKIQPRP | -0.68
41 | RRIRFRPPRLPRPRPRPMHFPRP | -0.136
42 | RRIRKRPPRLPRPRPRPAKFPRP | 0.602
43 | RRIRSRPPRLPRPRPRPFRSPRP | 0.00887
44 | RRIRERPPRLPRPRPRPTCHPRP | -0.186
45 | RRIRERPPRLPRPRPRPGIDPRP | -0.14
46 | RRIRHRPPRLPRPRPRPCMNPRP | -0.0607
47 | RRIRWRPPRLPRPRPRPYWLPRP | -0.0807
48 | RRIRWRPPRLPRPRPRPPELPRP | 0.38
49 | RRIRQRPPRLPRPRPRPMAGPRP | 0.132
50 | RRIRARPPRLPRPRPRPDFNPRP | 0.0591

Row | Sequence | shrunken log2 fold change
51 | RRIRHRPPRLPRPRPRPAGAPRP | 0.199
52 | RRIRIRPPRLPRPRPRPMIVPRP | -0.0322
53 | RRIRKRPPRLPRPRPRPKKFPRP | 0.0892
54 | RRIRDRPPRLPRPRPRPINAPRP | 0.00476
55 | RRIRCRPPRLPRPRPRPYYFPRP | -1.08
56 | RRIRGRPPRLPRPRPRPAKHPRP | 0.209
57 | RRIRGRPPRLPRPRPRPFWTPRP | 0.0497
58 | RRIRHRPPRLPRPRPRPGISPRP | -0.315
59 | RRIRERPPRLPRPRPRPSFHPRP | -0.549
60 | RRIRDRPPRLPRPRPRPGTNPRP | -0.344
61 | RRIRHRPPRLPRPRPRPRKTPRP | 0.00946
62 | RRIRYRPPRLPRPRPRPDWLPRP | -0.0748
63 | RRIRSRPPRLPRPRPRPGADPRP | 0.463
64 | RRIRNRPPRLPRPRPRPIVDPRP | -0.139
65 | RRIRQRPPRLPRPRPRPWKEPRP | -0.103
66 | RRIRYRPPRLPRPRPRPQCPPRP | -0.15
67 | RRIRERPPRLPRPRPRPEWQPRP | -0.0536
68 | RRIRVRPPRLPRPRPRPTAIPRP | 0.12
69 | RRIRGRPPRLPRPRPRPDKWPRP | 0.243
70 | RRIRCRPPRLPRPRPRPYLVPRP | -0.584
71 | RRIRMRPPRLPRPRPRPPKAPRP | 1.02
72 | RRIRDRPPRLPRPRPRPTRSPRP | 0.877
73 | RRIRARPPRLPRPRPRPQCNPRP | -0.104
74 | RRIRMRPPRLPRPRPRPECHPRP | -0.0482
75 | RRIRIRPPRLPRPRPRPWWYPRP | -0.179

Row | Sequence | shrunken log2 fold change
76 | RRIRQRPPRLPRPRPRPLWNPRP | -0.245
77 | RRIRFRPPRLPRPRPRPTHWPRP | 0.44
78 | RRIRDRPPRLPRPRPRPGRQPRP | 0.0393
79 | RRIRRRPPRLPRPRPRPLCNPRP | 0.0189
80 | RRIRVRPPRLPRPRPRPGEEPRP | 0.00621
81 | RRIRARPPRLPRPRPRPLMIPRP | -0.138
82 | RRIRIRPPRLPRPRPRPFDGPRP | -0.262
83 | RRIRIRPPRLPRPRPRPVFLPRP | -0.51
84 | RRIRIRPPRLPRPRPRPARIPRP | -0.0826
85 | RRIRYRPPRLPRPRPRPKCWPRP | 0.14
86 | RRIRKRPPRLPRPRPRPRTYPRP | 0.0895
87 | RRIRRRPPRLPRPRPRPNTYPRP | -0.336
88 | RRIRYRPPRLPRPRPRPIFRPRP | -0.258
89 | RRIRPRPPRLPRPRPRPNARPRP | 0.677
90 | RRIRERPPRLPRPRPRPSWQPRP | -0.00861
91 | RRIRTRPPRLPRPRPRPFVLPRP | -0.296
92 | RRIRIRPPRLPRPRPRPVHCPRP | -0.335
93 | RRIRPRPPRLPRPRPRPEAEPRP | 0.979
94 | RRIRFRPPRLPRPRPRPMPHPRP | -0.0704
95 | RRIRPRPPRLPRPRPRPRHRPRP | 0.177
96 | RRIRWRPPRLPRPRPRPCAWPRP | 0.0191
97 | RRIRCRPPRLPRPRPRPPKNPRP | 0.5
98 | RRIRDRPPRLPRPRPRPFVTPRP | -0.0344
99 | RRIRNRPPRLPRPRPRPDAQPRP | -0.173
100 | RRIRARPPRLPRPRPRPAIDPRP | 0.387

Row | Sequence | shrunken log2 fold change
101 | RRIRWRPPRLPRPRPRPTVDPRP | 0.296
102 | RRIRERPPRLPRPRPRPDGNPRP | -0.032
103 | RRIRCRPPRLPRPRPRPEHGPRP | 0.11
104 | RRIRARPPRLPRPRPRPCATPRP | 1.06
105 | RRIRRRPPRLPRPRPRPVWEPRP | 0.00461
106 | RRIRKRPPRLPRPRPRPFAMPRP | 0.359
107 | RRIRMRPPRLPRPRPRPYKNPRP | -0.259
108 | RRIRHRPPRLPRPRPRPHFNPRP | -0.42
109 | RRIRRRPPRLPRPRPRPWGLPRP | -0.222
110 | RRIRYRPPRLPRPRPRPPGDPRP | 0.152
111 | RRIRMRPPRLPRPRPRPCHGPRP | 0.241
112 | RRIRCRPPRLPRPRPRPLLHPRP | -0.319
113 | RRIRQRPPRLPRPRPRPASHPRP | 0.189
114 | RRIRSRPPRLPRPRPRPYITPRP | -0.535
115 | RRIRRRPPRLPRPRPRPENSPRP | 0.118
116 | RRIRVRPPRLPRPRPRPMTYPRP | -0.494
117 | RRIRIRPPRLPRPRPRPARPPRP | 0.474
118 | RRIRMRPPRLPRPRPRPHGEPRP | 0.365
119 | RRIRERPPRLPRPRPRPPGCPRP | 0.124
120 | RRIRMRPPRLPRPRPRPEFTPRP | 0.101
121 | RRIRMRPPRLPRPRPRPMREPRP | 0.279
122 | RRIRHRPPRLPRPRPRPNQPPRP | 0.00401
123 | RRIRDRPPRLPRPRPRPDPGPRP | 0.506
124 | RRIRIRPPRLPRPRPRPYCSPRP | -0.0144
125 | RRIRSRPPRLPRPRPRPAWQPRP | 0.0367

Row | Sequence | shrunken log2 fold change
126 | RRIRHRPPRLPRPRPRPCRPPRP | 0.0355
127 | RRIRTRPPRLPRPRPRPQVSPRP | -0.0699
128 | RRIRPRPPRLPRPRPRPMMSPRP | 0.081
129 | RRIRQRPPRLPRPRPRPMATPRP | 0.0329
130 | RRIRERPPRLPRPRPRPPCVPRP | -0.159
131 | RRIRRRPPRLPRPRPRPGVTPRP | 0.303
132 | RRIRKRPPRLPRPRPRPYPKPRP | 0.109
133 | RRIRGRPPRLPRPRPRPDQNPRP | 0.00612
134 | RRIRDRPPRLPRPRPRPPFIPRP | -0.533
135 | RRIRFRPPRLPRPRPRPLLDPRP | -0.0563
136 | RRIRSRPPRLPRPRPRPCVFPRP | -0.112
137 | RRIRKRPPRLPRPRPRPDINPRP | 0.193
138 | RRIRYRPPRLPRPRPRPFVIPRP | -0.31
139 | RRIRHRPPRLPRPRPRPWKWPRP | -0.00968
140 | RRIRSRPPRLPRPRPRPRCSPRP | 0.0579
141 | RRIRTRPPRLPRPRPRPSFLPRP | -0.586
142 | RRIRGRPPRLPRPRPRPYYYPRP | -0.824
143 | RRIRNRPPRLPRPRPRPNTLPRP | -0.788
144 | RRIRNRPPRLPRPRPRPICAPRP | 0.0914
145 | RRIRPRPPRLPRPRPRPYDTPRP | 0.0749
146 | RRIRSRPPRLPRPRPRPVMKPRP | -0.45
147 | RRIRGRPPRLPRPRPRPLNRPRP | 0.33
148 | RRIRRRPPRLPRPRPRPSCYPRP | -0.0677
149 | RRIRGRPPRLPRPRPRPFSEPRP | 0.144
150 | RRIRFRPPRLPRPRPRPLCMPRP | -0.888
